From publication PMC6315105 (Cell Reports, 2018)

How the values were obtained:
[1] = molecular target: RVFV Gn (crystallization construct) (Rift Valley fever virus, UniProt P21401); experiment: SEC; details: both partners purified
[2] = molecular target: SFTSV Gn glycoprotein (residues 20-341) (Severe fever with thrombocytopenia …, UniProt R4V2Q5); experiment: ELISA; details: both partners purified
Sequence of SFTSV Gn glycoprotein (residues 20-341) (R4V2Q5 whole entry, looked up, the tested form may be a part): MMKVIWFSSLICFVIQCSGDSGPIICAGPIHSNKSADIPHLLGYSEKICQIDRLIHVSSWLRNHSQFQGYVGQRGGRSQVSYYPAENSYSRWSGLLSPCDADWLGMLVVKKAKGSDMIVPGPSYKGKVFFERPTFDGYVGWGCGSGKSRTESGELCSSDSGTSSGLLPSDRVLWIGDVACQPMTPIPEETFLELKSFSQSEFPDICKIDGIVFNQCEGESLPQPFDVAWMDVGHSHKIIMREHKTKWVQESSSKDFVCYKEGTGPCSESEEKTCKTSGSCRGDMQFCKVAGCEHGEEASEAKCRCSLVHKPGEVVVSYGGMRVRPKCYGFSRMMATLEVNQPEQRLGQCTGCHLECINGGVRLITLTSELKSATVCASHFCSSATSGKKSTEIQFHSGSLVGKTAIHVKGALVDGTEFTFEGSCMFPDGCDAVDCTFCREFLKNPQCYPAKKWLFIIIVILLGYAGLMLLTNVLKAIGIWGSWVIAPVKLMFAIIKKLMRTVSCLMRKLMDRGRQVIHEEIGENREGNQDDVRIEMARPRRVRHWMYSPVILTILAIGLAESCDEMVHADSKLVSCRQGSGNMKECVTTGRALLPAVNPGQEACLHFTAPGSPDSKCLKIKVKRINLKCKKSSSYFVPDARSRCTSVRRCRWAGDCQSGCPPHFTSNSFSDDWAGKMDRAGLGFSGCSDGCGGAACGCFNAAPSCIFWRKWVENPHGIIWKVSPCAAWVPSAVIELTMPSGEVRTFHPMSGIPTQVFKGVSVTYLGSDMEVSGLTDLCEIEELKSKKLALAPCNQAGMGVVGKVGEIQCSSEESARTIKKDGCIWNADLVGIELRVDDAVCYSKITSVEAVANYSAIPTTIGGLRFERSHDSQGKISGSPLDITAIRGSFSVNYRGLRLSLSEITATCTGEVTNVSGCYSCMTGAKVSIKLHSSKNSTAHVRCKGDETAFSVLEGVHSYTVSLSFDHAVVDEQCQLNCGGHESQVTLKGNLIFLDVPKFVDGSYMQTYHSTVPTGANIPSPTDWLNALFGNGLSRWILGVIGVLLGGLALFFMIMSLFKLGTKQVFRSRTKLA

Sequence of RVFV Gn (crystallization construct) (P21401 168-483): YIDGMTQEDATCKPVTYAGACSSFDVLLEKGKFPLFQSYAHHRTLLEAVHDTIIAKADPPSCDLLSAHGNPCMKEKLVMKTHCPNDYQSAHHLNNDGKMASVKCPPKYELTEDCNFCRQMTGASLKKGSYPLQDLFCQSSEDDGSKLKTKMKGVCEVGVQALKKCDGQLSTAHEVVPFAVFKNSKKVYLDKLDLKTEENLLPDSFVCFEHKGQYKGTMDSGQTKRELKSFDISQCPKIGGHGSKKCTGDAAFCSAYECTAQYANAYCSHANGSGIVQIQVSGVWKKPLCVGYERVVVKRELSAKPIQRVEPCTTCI

B1: Fab fragment of RV-Gn1 (Fab, V domains shown)
VH: TGSLEESGGRLVTPGTPLTLTCTVSGIDPNSDHMSWVRQAPGKGLEWIAIIYASGTTYYASWAKGRFTISKTSTTVDLRIASPTTEDTATYFCATYPNYPTDNLWGQGTLVTVSG
VL: TGMTQTPSPVSAAVGGTVTINCQASQSVYNNYLLSWYQQKPGQPPKRLIYSASTLASGVSSRFKGSGSGTQFTLTISDVQCDDAATYYCLGSYDGNSADCLAFGGGTEVVVK
notes: also called RV-Gn1 Fab; Fab RV-Gn1
Question: With B1 as the binder, how does the “stoichiometry N” value [1] read?
Answer: 1

B2: RV-Gn1 (full-length rabbit IgG) (antibody, V domains shown)
VH: QSLEESGGRLVTPGTPLTLTCTVSGIDPNSDHMSWVRQAPGKGLEWIAIIYASGTTYYASWAKGRFTISKTSTTVDLRIASPTTEDTATYFCATYPNYPTDNLWGQGTLVTVSS
VL: B1 VL
notes: also called RVFV-Gn1; source: rabbit hybridoma supernatant, purified (Protein G)
Question: Does B2 bind [2]?
Answer: no binding (tested: 10μg/ml)
